Measurements: patent US20240052052A1 (published 2024)

B1: 107D10D11 (antibody, V domains shown)
VH: QIQLKQSGPGLVQPSQSLSITCTVSGFSLSSYGVNWVRQSPGKGLEWLGMIWSGGNTDYNAAFISRVSFTKDNSKSQVFFTMNSLQADDTAIYYCARIWYYGMDYWGQGTSVTVSS
VL: DIVMTQSQKFMSTTVGDRVSITCKASQNVGTAVAWFQQKPGQSPKILIYSASIRYPGVPDRFTGSGSGTDFTLTTSNVQSEDLADYFCLQYITFPRTFGGGTKLYIK
B2: 81A1F8-VH-11/VL-11 (antibody, V domains shown)
VH: QVQLVQSGAEVKKPGASVKVSCKASGYLFTGYYMNWVRQAPGQGLEWMGEINPNTGDTNNNQKFKARVTMTVDRSISTAYMELSRLRSDDTAVYYCVRRDYGTSLDYWGQGTLVTVSS
VL: DVQITQSPSSLSASVGDRVTITCRASKSINKYLAWYQQKPGKAPKLLIHSGSTLQSGVPSRFSGSRSGTDFTLTISSLQPEDFATYYCQQHNEYPITFGQGTKLEIK
B3: 81A1F8-VH-11/VL-41 (antibody, V domains shown)
VH: QVQLVQSGAEVKKPGASVKVSCKASGYLFTGYYMNWVRQAPGQGLEWMGEINPNTGDTNNNQKFKARVTMTVDRSISTAYMELSRLRSDDTAVYYCVRRDYGTSLDYWGQGTLVTVSS
VL: DVQITQSPSTLSASVGDRVTITCRASKSINKYLAWYQQKPGKAPKLLIHSGSTLQSGVPSRFSGSRSGTEFTLTISSLQPDDFATYYCQQHNEYPITFGQGTKLEIK
B4: 81A1F8-VH-31/VL-11 (antibody, V domains shown)
VH: QVQLVQSGAEVKKPGASVKVSCKASGYLFTGYYMNWVRQAPGQRLEWMGEINPNTGDTNNNQKFKARVTITVDRSASTAYMELSSLRSEDTAVYYCVRRDYGTSLDYWGQGTLVTVSS
VL: DVQITQSPSSLSASVGDRVTITCRASKSINKYLAWYQQKPGKAPKLLIHSGSTLQSGVPSRFSGSRSGTDFTLTISSLQPEDFATYYCQQHNEYPITFGQGTKLEIK
B5: 81A1F8-VH-21/VL-21 (antibody, V domains shown)
VH: QVQLVQSGAEVKKPGASVKVSCKASGYLFTGYYMNWVRQAPGQGLEWMGEINPNTGDTNNNQKFKARVTMTVDRSTSTAYMELSSLRSEDTAVYYCVRRDYGTSLDYWGQGTLVTVSS
VL: DVQITQSPSFLSASVGDRVTITCRASKSINKYLAWYQQKPGKAPKLLIHSGSTLQSGVPSRFSGSRSGTEFTLTISSLQPEDFATYYCQQHNEYPITFGQGTKLEIK
B6: 81A1F8-VH-31/VL-31 (antibody, V domains shown)
VH: QVQLVQSGAEVKKPGASVKVSCKASGYLFTGYYMNWVRQAPGQRLEWMGEINPNTGDTNNNQKFKARVTITVDRSASTAYMELSSLRSEDTAVYYCVRRDYGTSLDYWGQGTLVTVSS
VL: DVQITQSPSSLSASVGDRVTITCRASKSINKYLAWYQQKPGKVPKLLIHSGSTLQSGVPSRFSGSRSGTDFTLTISSLQPEDFATYYCQQHNEYPITFGQGTKLEIK
B7: 81A1F8-VH-11/VL-21 (antibody, V domains shown)
VH: QVQLVQSGAEVKKPGASVKVSCKASGYLFTGYYMNWVRQAPGQGLEWMGEINPNTGDTNNNQKFKARVTMTVDRSISTAYMELSRLRSDDTAVYYCVRRDYGTSLDYWGQGTLVTVSS
VL: DVQITQSPSFLSASVGDRVTITCRASKSINKYLAWYQQKPGKAPKLLIHSGSTLQSGVPSRFSGSRSGTEFTLTISSLQPEDFATYYCQQHNEYPITFGQGTKLEIK
B8: 81A1F8-VH-21/VL-41 (antibody, V domains shown)
VH: QVQLVQSGAEVKKPGASVKVSCKASGYLFTGYYMNWVRQAPGQGLEWMGEINPNTGDTNNNQKFKARVTMTVDRSTSTAYMELSSLRSEDTAVYYCVRRDYGTSLDYWGQGTLVTVSS
VL: DVQITQSPSTLSASVGDRVTITCRASKSINKYLAWYQQKPGKAPKLLIHSGSTLQSGVPSRFSGSRSGTEFTLTISSLQPDDFATYYCQQHNEYPITFGQGTKLEIK
B9: 81A1F8-VH-21/VL-31 (antibody, V domains shown)
VH: QVQLVQSGAEVKKPGASVKVSCKASGYLFTGYYMNWVRQAPGQGLEWMGEINPNTGDTNNNQKFKARVTMTVDRSTSTAYMELSSLRSEDTAVYYCVRRDYGTSLDYWGQGTLVTVSS
VL: DVQITQSPSSLSASVGDRVTITCRASKSINKYLAWYQQKPGKVPKLLIHSGSTLQSGVPSRFSGSRSGTDFTLTISSLQPEDFATYYCQQHNEYPITFGQGTKLEIK
B10: 81A1F8-VH-21/VL-11 (antibody, V domains shown)
VH: QVQLVQSGAEVKKPGASVKVSCKASGYLFTGYYMNWVRQAPGQGLEWMGEINPNTGDTNNNQKFKARVTMTVDRSTSTAYMELSSLRSEDTAVYYCVRRDYGTSLDYWGQGTLVTVSS
VL: DVQITQSPSSLSASVGDRVTITCRASKSINKYLAWYQQKPGKAPKLLIHSGSTLQSGVPSRFSGSRSGTDFTLTISSLQPEDFATYYCQQHNEYPITFGQGTKLEIK
B11: 81A1F8-VH-31/VL-41 (antibody, V domains shown)
VH: QVQLVQSGAEVKKPGASVKVSCKASGYLFTGYYMNWVRQAPGQRLEWMGEINPNTGDTNNNQKFKARVTITVDRSASTAYMELSSLRSEDTAVYYCVRRDYGTSLDYWGQGTLVTVSS
VL: DVQITQSPSTLSASVGDRVTITCRASKSINKYLAWYQQKPGKAPKLLIHSGSTLQSGVPSRFSGSRSGTEFTLTISSLQPDDFATYYCQQHNEYPITFGQGTKLEIK
B12: 58F10-1F6 (antibody, V domains shown)
VH: EVQLRQSGPELVKPGAAVKISCKASGYSFTGYHMNWVKQSPEKSLEWIGEINPITSGITYNQIFKAKATLTVDKSSSTAYLQLKSLTSEDSAVYYCTRRDYGTSLDYWGQGTTLTVSS
VL: DIQMTQITSSLSASLGDRVTITCRASQDISNYLNWYQQKPDGTVKLLIYYTSRLLSGVPSRFSGSGSGTDYSLTISNLEQEDIATYFCQQDHTLPRTFGGGTKLEIR
B13: 56A7E3 (antibody, V domains shown)
VH: EVQLQQSGPELVKPGASVKIPCKASGYTFTAYNMDWVKQSHGMSLEWIGDINPINGGTIYNQNFEGKATLTVDKSSSTAYLELRSLTSEDTAVYYCARRGSYYYGSSHYALDFWGQGTSVSVSS
VL: DIQMTQITSSLSASLGDRVTITCRASQDISNYLNWYQQKPDGTVKLLIYYTSRLLSGVPSRFSGSGSGTDYSLTISNLEQEDIATYFCQQDHTLPRTFGGGTKLEIR
B14: 71A4F12 (antibody, V domains shown)
VH: EVQLQQSGPELVKPGASVKIPCKASGYTFTAYNMDWVKQSHGMSLEWIGDINPNNGDTVYNQNFKGKATLTVDKSSSTAYMELRSLTSEDTAVYYCARRGSYYYGSSHYALDFWGQGTSVSVSS
VL: DIQMTQITSSLSASLGNRVTISCRASQDIRNYLNWYQQKPDGTVKLLIYYTSRLLSGVPSRFSGSGSGTDYSLTISNLEQEDIATYFCQQDNSLPRTFGGGTRLEIR
B15: 100F2E3 (antibody, V domains shown)
VH: QVQLQQPGAELVRPGSSVKLSCKTSDYTFTSYWMDWVKQRPGQGLEWIGNIYPSDSKTHSNQKFRDKATLTVDKSSSTAYMQLNSLTSEDSAVYYCARRGGYYGYAMDYWGQGTSVTVSS
VL: DIVMTQSPSSLSVSAGEKVTMSCKSSQSLLNSGNQDNYLAWYQQKPGQPPKLLIYGASIRESGVPDRFTGSGSGTDFTLTISSVQAEDLAVYYCQNDHSYPYTFGGGTKLEIK
B16: 73H5-1G2 (antibody, V domains shown)
VH: QVQLKQSGPGLVQPSQSLSITCTVSGFSLTNYGVHWIRQSPGKGLEWLGVIWRGGSTDYNAAFMSRLSITKDNSKSQVFFQMNSLQAADTAIYYCANNYGYDCFAYWGQGTLVTVSA
VL: DVQITQSPSYLAASPGETITINCRASKSIIKYLAWYQEKPGKTNKLLIYSGSTLQSGIPSRFSGSGSGTDFTLTITSLEPEDFAMYYCQQHNEYPLTFGAGTRLELK

Target: T1, Human CD24-mFc (human, UniProt P25063 27-59)
T1 chain: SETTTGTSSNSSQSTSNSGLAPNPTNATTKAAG
Assay: SPR (BIAcore)

| Binder | Kd [nM] |
| --- | --- |
| B1 | 0.762 |

Target: T1, Human CD24-mFc
Assay: BLI (Gatorprime)

| Binder | Kd [nM] |
| --- | --- |
| B2 | 0.0204 |
| B3 | 0.619 |
| B4 | 0.247 |
| B5 | 0.0819 |
| B6 | 1.11 |
| B7 | 0.139 |
| B8 | 0.525 |
| B9 | 0.712 |
| B10 | 0.0158 |
| B11 | 21600 |

Target: T2, human CD24 (human, UniProt P25063 27-59, heavily glycosylated, GPI-anchored (as described in the background))
T2 chain: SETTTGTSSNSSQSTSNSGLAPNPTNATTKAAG
Assay: FACS binding; Nalm6 cells

| Binder | EC50 [nM] |
| --- | --- |
| B12 | 70.6 |
| B13 | 29.2 |
| B14 | 24.9 |
| B15 | 7.84 |
| B16 | 108 |
